In paper PMC2679143 (PLoS ONE, 2009):

B1: Cif from Photorhabdus asymbiotica (natural protein)
chain: MMREYSKEDDCVKEKTNLAESENVEADNYLEMDCLNYLAKLNGMPERKDHSLNSTKLIDDIIKLHNDRKGNKLLWNDNWQDKIIDRDLESIFKKIDEMVSEFGGIEIYKDIVGENPYDPTEPVCGYSAQNIFKLMTEGEHAVDPVKMAQTGKINGNEFAEKLEQLNSSNNYVALINDHRLGHMFLVDIPSTNREKVGYIYQSDLGDGALPALKIADWLKSRGKESINVNKLKKFLSNEFTMLSESEQKELIAEIFDINKDIANVKLGKIKKDKAVDVYLREYDLNDFISNIEKLKTKLV
notes: also called CifPa; P. asymbiotica Cif; source: E. coli BL21(DE3) or B834(DE3), pET28a, purified (Ni2+-IMAC, Superdex 75)
B2: Cif from Photorhabdus luminescens (natural protein)
chain: SKFKKNSINTIKLIDDIIALHNDPKGNKLLWNDNWQDKIINRDLANIFEKIDESVSELGGLEMYQEMVGVNPYDPTEPVCGLSAQNIFKLMTEGEHAVDPVEMAQTGKIDGNEFAESVDQLSSAKNYVALVNDRRLGHMFLIDIPSNDQETVGYIYQSDLGQGALPPLKIADWLNSRGKDAVSLNKLKKLLSREFNLLSDDEKRALISETLDIHKDVSNVELDRIKRDRGVDIYLTEYDVNNFYENIETLKSKLSNYDKKLSKPK
notes: also called CifPl; source: E. coli BL21(DE3) or B834(DE3), pET28a, purified (Ni2+-IMAC, Superdex 75)

What was measured:
[1] = molecular target: cycle inhibiting factor (Cif) from enteropathogenic Escherichia coli (EPEC) (enteropathogenic Escherichia coli (EPEC)); test: SEC
SEC = molecular target: the molecule itself; test: SEC

Molecule	stoichiometry N [1]	stoichiometry N (SEC)
cycle inhibiting factor (Cif) from enteropathogenic Escherichia coli (EPEC) (natural protein)	2	
B1		2
B2		2
